Publication PMC5369232

T1: orange carotenoid protein (OCP) of Synechocystis sp. PCC 6803 (Synechocystis sp. PCC 6803), P74102
T1 chain: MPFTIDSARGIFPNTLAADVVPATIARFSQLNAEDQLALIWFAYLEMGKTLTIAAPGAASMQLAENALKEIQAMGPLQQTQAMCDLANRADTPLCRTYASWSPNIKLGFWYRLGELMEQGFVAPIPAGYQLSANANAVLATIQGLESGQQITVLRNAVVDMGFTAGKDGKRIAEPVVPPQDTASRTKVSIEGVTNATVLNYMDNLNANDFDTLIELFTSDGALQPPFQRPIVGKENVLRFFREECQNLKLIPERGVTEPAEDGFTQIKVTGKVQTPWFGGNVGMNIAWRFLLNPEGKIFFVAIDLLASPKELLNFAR


How the values were obtained:
[1] = target: fluorescence recovery protein (FRP, Slr1964) of Synechocystis sp. PCC 6803, His6-tagged (Synechocystis sp. PCC 6803) (UniProt P74103); assay: native MS
[2] = target: T1, orange carotenoid protein (OCP) of …; assay: native MS; settings: remark: other sources report otherwise

| Molecule | stoichiometry N [1] | stoichiometry N [2] |
| --- | --- | --- |
| fluorescence recovery protein (FRP, Slr1964) of Synechocystis sp. PCC 6803, His6-tagged (from UniProt P74103 2-109) (natural protein) | 2 | – |
| orange carotenoid protein (OCP) of Synechocystis sp. PCC 6803, P74102 1-317 (natural protein) MPFTIDSARGIFPNTLAADVVPATIARFSQLNAEDQLALIWFAYLEMGKTLTIAAPGAASMQLAENALKEIQAMGPLQQTQAMCDLANRADTPLCRTYASWSPNIKLGFWYRLGELMEQGFVAPIPAGYQLSANANAVLATIQGLESGQQITVLRNAVVDMGFTAGKDGKRIAEPVVPPQDTASRTKVSIEGVTNATVLNYMDNLNANDFDTLIELFTSDGALQPPFQRPIVGKENVLRFFREECQNLKLIPERGVTEPAEDGFTQIKVTGKVQTPWFGGNVGMNIAWRFLLNPEGKIFFVAIDLLASPKELLNFAR | – | 2 |
